Experimental data from patent US20170259217A1 (GOVERNORS OF THE UNIVERSITY OF ALBERTA, published 2017).
Non-standard residues stand in square brackets, D forms with d. amino hexenoic acid = amino hexenoic acid, a vinyl (alkene)-bearing residue; Gly(octyl) = CCCCCCCC[C@H](N)C(=O)O; NMeL = CN[C@@H](CC(C)C)C(=O)O

Target: T1, OmpG, bacterial porin (Escherichia coli K12) (Escherichia coli K12, UniProt P76045 22-301, limits assumed)
T1 sequence (looked up): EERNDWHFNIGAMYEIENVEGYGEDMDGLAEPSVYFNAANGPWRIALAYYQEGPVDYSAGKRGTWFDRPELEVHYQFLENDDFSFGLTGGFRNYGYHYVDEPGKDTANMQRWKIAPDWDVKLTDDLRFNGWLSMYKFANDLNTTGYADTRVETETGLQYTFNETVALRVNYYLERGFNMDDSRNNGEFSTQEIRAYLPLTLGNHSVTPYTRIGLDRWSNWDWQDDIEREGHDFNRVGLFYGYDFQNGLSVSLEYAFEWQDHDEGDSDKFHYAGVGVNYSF
Experiment: circular dichroism of peptide-stabilized protein

binding result: binds
B1: vinyl (alkene mid-) functionalized β-sheet peptide, structure (8): acetyl-(octyl)Gly-Ser-Leu-Ser-amino hexenoic acid-Leu-Asp-(octyl)Gly-Asp-Gly-Leu-NH2 (peptide)
peptide: Ac-[Gly(octyl)]SLS[amino hexenoic acid][NMeL]D[Gly(octyl)]DGL-NH2
notes: Synthetic 11-residue peptide; also called Vinyl-BP1
